Data: patent publication US20180066058A1 (published 2018)
Positions count from the first letter of the chain named. Blank lines part the entries; values can stand above or below the binder they belong to.

Columns and labels:
[1] = biological target: T1, human ICOS-mFc (Chimerigen) (human, UniProt Q9Y6W8 21-140); test: HTRF neutralisation of Alexa 647 human B7-H2 binding to human ICOS-mFc; human IgG4.PE; mean, n = 4
T1 construct: also called human ICOS receptor; human ICOS Receptor; not shown: mouse Fc of the bought construct
T1 sequence: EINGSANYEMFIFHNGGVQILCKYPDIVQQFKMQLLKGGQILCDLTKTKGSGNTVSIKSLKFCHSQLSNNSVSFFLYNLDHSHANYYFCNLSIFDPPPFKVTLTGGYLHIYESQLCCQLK
Protocol: (§1) 5 μl of ICOS receptor (human ICOS-mFc, 20 nM, 5 nM final or mouse ICOS-mFc 4 nM, 1 nM final (Chimerigen)) was added to required wells. Plate was incubated for 1 hr at room temperature (RT).
(§2) Finally, 5 μl of anti-mouse IgG donor mAb (Southern Biotech) labelled with europium cryptate (Cis Bio), 40 nM, 10 nM final was added to each well and the assay was left in the dark at RT to incubate for a further 2 hours. After incubation, assay was read on Envision plate reader (Perkin Elmer) using a standard HTRF protocol. […] Titration curves and IC50 values [M] were plotted using Graphpad (Prism). IC50 values were calculated by first transforming the data using equation X=Log(X). The transformed data was then fitted using nonlinear regression, using fitting algorithm, log (inhibitor) vs. response—variable slope (four parameters).

[2] = biological target: T2, mouse ICOS-mFc (Chimerigen) (mouse, UniProt Q9WVS0 21-141, limits assumed); test: HTRF neutralisation of Alexa 647 mouse B7-H2 binding to mouse ICOS-mFc; human IgG4.PE; mean, n = 3
T2 construct: also called mouse ICOS receptor; mouse ICOS Receptor; not shown: mouse Fc of the bought construct
T2 sequence: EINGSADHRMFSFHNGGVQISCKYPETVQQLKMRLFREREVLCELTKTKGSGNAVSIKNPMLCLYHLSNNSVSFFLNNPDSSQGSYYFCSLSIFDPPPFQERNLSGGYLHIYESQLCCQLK
Protocol: as §1, §2

[3] = biological target: T2, mouse ICOS-mFc (Chimerigen); test: HTRF neutralisation of Alexa 647 mouse B7-H2 binding to mouse ICOS-mFc; human IgG1; mean, n = 3
Protocol: as §1, §2

[4] = biological target: T1, human ICOS-mFc (Chimerigen); test: HTRF neutralisation of Alexa 647 human B7-H2 binding to human ICOS-mFc; human IgG1; mean, n = 4
Protocol: as §1, §2

[5] = biological target: T3, Human ICOS extracellular domain fused to human Fc (human, UniProt Q9Y6W8 21-140); test: SPR (ProteOn XPR36), human ICOS ECD-Fc captured, Fab analyte, pH 7.4, 37 C
T3 construct: Dimeric protein made in house from NCBI NP_036224.1; also called hICOS; hICOS Fc; not shown: human Fc region
T3 sequence: T1 sequence
Protocol: (§3) In addition, a comparison was performed of antibody:antigen binding affinity at different pH values. As before, the dimeric human ICOS protein, presented as the extracellular domain of ICOS fused to a human Fc region, was captured on the anti-human Fc capture surface created using the 3 antibody cocktail, immobilised on the GLC biosensor chip by primary amine coupling. SPR analysis of recombinantly expressed anti-ICOS Fabs was carried out on the ProteOn XPR36 Array system (Biorad). The Fab fragments were used as analyte to generate binding sensorgrams, which were double referenced with a buffer injection (i.e., 0 nM). The subsequent referenced sensorgrams were fitted to the 1:1 model inherent to the ProteOn analysis software. […] Data were fitted to the 1:1 model.

[6] = biological target: T3, Human ICOS extracellular domain fused …; test: SPR (ProteOn XPR36), human ICOS ECD-Fc captured, Fab analyte, pH 5.5, 37 C
Protocol: as §3

[7] = biological target: T3, Human ICOS extracellular domain fused …; test: SPR (ProteOn XPR36), Fc-tagged ICOS captured on anti-human IgG, Fab analyte, 25 C
Protocol: (§4) Fab affinities of the ICOS leads were generated by SPR using the ProteOn XPR3 6 (BioRad). An anti-human IgG capture surface was created on a GLC biosensor chip by primary amine coupling, immobilising three anti-human IgG antibodies (Jackson Labs 109-005-008, 109-006-008 and 309-006-008). […] Binding sensorgrams were double referenced using a buffer injection (i.e. 0 nM), and the data was fitted to the 1:1 model inherent to the ProteOn XPR36 analysis software. The assay was run at 25° C. and using HBS-EP as running buffer.

[8] = biological target: T4, Mouse ICOS extracellular domain fused to human Fc (mouse, UniProt Q9WVS0 21-141); test: as above
T4 construct: Made in house from NCBI NP_059508.2; also called mICOS; mICOS Fc; not shown: human Fc region
T4 sequence: T2 sequence
Protocol: as §4

IC50 [3]: 0.3 nM
IC50 [4]: 2.5 nM
B2: STIM005 human IgG1 (antibody, V domains shown)
VH: QVQLVQSGAEVKKPGASVKVSCKASGYTFNSYGIIWVRQAPGQGLEWMGWISVHNGNTNCAQKLQGRVTMTTDTSTSTAYMELRSLRTDDTAVYYCARAGYDILTDFSDAFDIWGHGTMVTVSS
VL: DIQMTQSPSSLSASVGDRVTITCRASQNINNFLNWYQQKEGKGPKLLIYAASSLQRGIPSTFSGSGSGTDFTLTISSLQPEDFATYICQQSYGIPWVGQGTKVEIKR
notes: Human IgG1 format

IC50 [3]: 30 nM
IC50 [4]: 3.6 nM
B5: STIM002-B human IgG1 (antibody, V domains shown)
VH: QVQLVQSGGEVKKPGASVKVSCKASGYTFTSYGFSWVRQAPGQGLEWMGWISAYNGNTNYAQKLQGRVTMTTDTSTSTAYMELRSLRSDDTAVYYCARSTYFYGSGTLYGMDVWGQGTTVTVSS
VL: DIVMTQSPLSLPVTPGEPASISCRSSQSLLHSDGYNCLDWYLQKPGQSPQLLIYLGSTRASGFPDRFSGSGSGTDFTLKISRVEAEDVGVYYCMQALQTPCSFGQGTKLEIKR
notes: Human IgG1 format

Kd [5]: 41.8 nM
Kd [6]: 26.6 nM
B6: STIM002-B Fab (Fab, V domains shown)
VH: B5 VH
VL: DIVMTQSPLSLPVTPGEPASISCRSSQSLLHSDGYNCLDWYLQKPGQSPQLLIYLGSTRASGFPDRFSGSGSGTDFTLKISRVEAEDVGVYYCMQALQTPCSFGQGTKLEIK
notes: Recombinantly expressed purified Fab

IC50 [1]: 1.3 nM
IC50 [2]: 4.7 nM
B7: STIM001 human IgG4.PE (antibody, V domains shown)
VH: QVQVVQSGAEVKKPGASVKVSCKASGYTFSTFGITWVRQAPGQGLEWMGWISAYNGDTNYAQNLQGRVIMTTDTSTSTAYMELRSLRSDDTAVYYCARSSGHYYYYGMDVWGQGTTVTVSS
VL: DIVMTQSPLSLPVTPGEPASISCRSSQSLLHSNEYNYLDWYLQKPGQSPQLLIFLGSNRASGVPDRFSGSGSGTDFTLKITRVEAEDVGIYYCMQSLQTPLTFGGGTKVEIK
notes: Human IgG4.PE (null-effector) format

Kd [7]: 13.8 nM
Kd [8]: 318 nM
B12: STIM006 Fab (Fab, V domains shown)
VH: QVQLVESGGGLVKPGGSLRLSCAASGFTFSDYFMSWIRQAPGKGLEWISYISSSGSTIYYADSVRGRFTISRDNAKYSLYLQMNSLRSEDTAVYYCARDHYDGSGIYPLYYYYGLDVWGQGTTVTVSS
VL: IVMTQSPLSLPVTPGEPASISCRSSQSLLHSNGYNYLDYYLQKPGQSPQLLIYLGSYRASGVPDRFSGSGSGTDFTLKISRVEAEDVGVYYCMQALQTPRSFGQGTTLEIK
notes: Purified Fab

IC50 [4]: 2.2 nM
B13: STIM006 human IgG1 (antibody, V domains shown)
VH: B12 VH
VL: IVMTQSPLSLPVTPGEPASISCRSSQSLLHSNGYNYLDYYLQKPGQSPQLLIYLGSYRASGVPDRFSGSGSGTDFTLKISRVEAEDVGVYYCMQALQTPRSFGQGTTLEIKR
notes: Human IgG1 format

Second part, the binder before the results:

B1: STIM005 human IgG4.PE (antibody, V domains shown)
VH: B2 VH
VL: DIQMTQSPSSLSASVGDRVTITCRASQNINNFLNWYQQKEGKGPKLLIYAASSLQRGIPSTFSGSGSGTDFTLTISSLQPEDFATYICQQSYGIPWVGQGTKVEIK
notes: as for B7
IC50 [1]: 1.6 nM
IC50 [2]: 0.3 nM

B3: STIM002-B human IgG4.PE (antibody, V domains shown)
VH: B5 VH
VL: B6 VL
notes: as for B7
IC50 [1]: 3.4 nM
IC50 [2]: 43.9 nM

B4: STIM002 human IgG1 (antibody, V domains shown)
VH: B5 VH
VL: B5 VL with C37Y, C101L
notes: Human IgG1 format
IC50 [3]: 6.9 nM
IC50 [4]: 1.9 nM

B8: STIM009 human IgG1 (antibody, V domains shown)
VH: QVQLVESGGGLVKPGGSLRLSCAASGFTFSDYYMSWIRQAPGKGLEWVSYISSSGSTIYYADSVKGRFTISRDNAKNSLYLQINSLRAEDTAVYYCARDFYDILTDSPYFYYGVDVWGQGTTVTVSS
VL: not shown
notes: Human IgG1 format
IC50 [4]: 30.5 nM

B9: STIM009 human IgG4.PE (antibody, V domains shown)
VH: B8 VH
VL: not shown
notes: as for B7
IC50 [1]: 4.6 nM

B10: STIM003 human IgG4.PE (antibody, V domains shown)
VH: EVQLVESGGGVVRPGGSLRLSCVASGVTFDDYGMSWVRQAPGKGLEWVSGINWNGGDTDYSDSVKGRFTISRDNAKNSLYLQMNSLRAEDTALYYCARDFYGSGSYYHVPFDYWGQGILVTVSS
VL: EIVLTQSPGTLSLSPGERATLSCRASQSVSRSYLAWYQQKRGQAPRLLIYGASSRATGIPDRFSGDGSGTDFTLSISRLEPEDFAVYYCHQYDMSPFTFGPGTKVDIK
notes: as for B7
IC50 [1]: 1.2 nM
IC50 [2]: 0.2 nM

B11: STIM004 human IgG1 (antibody, V domains shown)
VH: B10 VH with V23A, V27L, A40V, G56D, D57N, S61A, F100Y, H108N, I118T
VL: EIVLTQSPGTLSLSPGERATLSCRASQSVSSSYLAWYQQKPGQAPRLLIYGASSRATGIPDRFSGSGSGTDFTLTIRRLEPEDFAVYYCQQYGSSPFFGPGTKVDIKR
notes: Human IgG1 format
IC50 [3]: 22.1 nM
IC50 [4]: 233 nM
